In publication PMC7545097, “Mapping the native interaction surfaces of PREP1 with PBX1 by cross-linking mass-spectrometry and mutagenesis” (Scientific Reports, 2020):

Columns and labels:
Assay in all cases: time-resolved fluorescence immunoassay (TR-FIA); plate coated with monoclonal anti-PBX1; PBX1 pre-incubated with PREP1 or MEIS1 for 1 h on ice, 10 µg/mL in 1% BSA PBS, 1 h at room temperature on the plate; detected with anti-PREP1 or biotinylated anti-MEIS1/2 and Eu^3+ conjugates; normalised to the wild-type protein taken as 1
Settings in all cases: both partners purified
[1] = target: T1, PBX1 Δ105-113 (human, UniProt P40424 1-430, Δ105-113)
T1 construct: PBX1, residues 1-430, with an internal deletion; source: E. coli, purified
T1 sequence (looked up): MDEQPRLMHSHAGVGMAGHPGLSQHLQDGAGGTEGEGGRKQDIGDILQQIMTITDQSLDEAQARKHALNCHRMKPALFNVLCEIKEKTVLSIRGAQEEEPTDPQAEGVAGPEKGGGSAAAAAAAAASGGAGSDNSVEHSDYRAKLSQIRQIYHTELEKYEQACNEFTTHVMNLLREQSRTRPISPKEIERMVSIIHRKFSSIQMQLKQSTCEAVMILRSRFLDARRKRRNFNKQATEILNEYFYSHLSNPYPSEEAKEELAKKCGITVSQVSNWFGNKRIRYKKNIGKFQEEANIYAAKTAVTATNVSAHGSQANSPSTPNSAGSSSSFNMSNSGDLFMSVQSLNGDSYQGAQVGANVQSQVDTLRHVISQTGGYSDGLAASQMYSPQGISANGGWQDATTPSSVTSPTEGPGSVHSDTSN

[2] = target: T2, PREP1 L67A (UniProt P55347 1-436, L67A)
T2 construct: PREP1 (PKNOX1), residues 1-436
T2 sequence (looked up): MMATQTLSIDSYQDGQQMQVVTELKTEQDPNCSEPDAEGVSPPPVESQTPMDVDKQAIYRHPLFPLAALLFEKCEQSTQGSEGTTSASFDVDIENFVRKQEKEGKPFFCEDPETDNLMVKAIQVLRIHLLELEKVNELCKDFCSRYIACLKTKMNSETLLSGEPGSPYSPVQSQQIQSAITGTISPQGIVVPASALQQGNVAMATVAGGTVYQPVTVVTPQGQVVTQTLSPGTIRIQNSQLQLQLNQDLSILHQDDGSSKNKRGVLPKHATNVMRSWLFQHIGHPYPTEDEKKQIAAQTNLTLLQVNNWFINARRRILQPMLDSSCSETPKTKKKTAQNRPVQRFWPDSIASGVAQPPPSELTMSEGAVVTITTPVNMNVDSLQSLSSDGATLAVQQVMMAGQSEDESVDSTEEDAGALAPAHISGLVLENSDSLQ

[3] = target: T3, PREP1 L70A (UniProt P55347 1-436, L70A)
T3 construct: PREP1 (PKNOX1), residues 1-436
T3 sequence (looked up): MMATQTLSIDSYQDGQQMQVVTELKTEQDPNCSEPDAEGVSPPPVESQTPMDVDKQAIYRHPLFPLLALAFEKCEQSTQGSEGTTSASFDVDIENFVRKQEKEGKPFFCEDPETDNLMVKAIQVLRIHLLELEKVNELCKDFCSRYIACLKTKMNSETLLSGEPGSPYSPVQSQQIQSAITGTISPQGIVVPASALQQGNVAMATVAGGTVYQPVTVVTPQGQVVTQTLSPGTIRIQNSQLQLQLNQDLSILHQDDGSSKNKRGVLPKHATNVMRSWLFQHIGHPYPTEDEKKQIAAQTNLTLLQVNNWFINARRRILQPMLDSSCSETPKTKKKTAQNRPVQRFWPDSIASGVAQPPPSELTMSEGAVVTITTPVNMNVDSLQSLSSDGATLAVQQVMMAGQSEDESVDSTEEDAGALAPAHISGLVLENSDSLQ

[4] = target: T4, PREP1 L129A (UniProt P55347 1-436, L129A)
T4 construct: PREP1 (PKNOX1), residues 1-436
T4 sequence (looked up): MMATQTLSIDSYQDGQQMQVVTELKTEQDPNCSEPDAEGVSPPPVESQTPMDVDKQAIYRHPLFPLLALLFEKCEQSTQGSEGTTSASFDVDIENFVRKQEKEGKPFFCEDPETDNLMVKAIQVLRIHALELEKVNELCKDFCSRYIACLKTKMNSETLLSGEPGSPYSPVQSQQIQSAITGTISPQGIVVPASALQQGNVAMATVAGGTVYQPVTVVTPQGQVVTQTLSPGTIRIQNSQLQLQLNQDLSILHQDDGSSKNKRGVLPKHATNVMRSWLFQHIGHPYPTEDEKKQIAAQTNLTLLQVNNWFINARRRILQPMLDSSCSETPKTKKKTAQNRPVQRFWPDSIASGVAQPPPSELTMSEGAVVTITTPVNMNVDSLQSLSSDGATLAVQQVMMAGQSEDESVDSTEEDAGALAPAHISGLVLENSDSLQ

B1: PREP1_(1-436), wild-type recombinant (TR-FIA) (natural protein, UniProt P55347 1-436, looked up)
chain: MMATQTLSIDSYQDGQQMQVVTELKTEQDPNCSEPDAEGVSPPPVESQTPMDVDKQAIYRHPLFPLLALLFEKCEQSTQGSEGTTSASFDVDIENFVRKQEKEGKPFFCEDPETDNLMVKAIQVLRIHLLELEKVNELCKDFCSRYIACLKTKMNSETLLSGEPGSPYSPVQSQQIQSAITGTISPQGIVVPASALQQGNVAMATVAGGTVYQPVTVVTPQGQVVTQTLSPGTIRIQNSQLQLQLNQDLSILHQDDGSSKNKRGVLPKHATNVMRSWLFQHIGHPYPTEDEKKQIAAQTNLTLLQVNNWFINARRRILQPMLDSSCSETPKTKKKTAQNRPVQRFWPDSIASGVAQPPPSELTMSEGAVVTITTPVNMNVDSLQSLSSDGATLAVQQVMMAGQSEDESVDSTEEDAGALAPAHISGLVLENSDSLQ
notes: also called wild-type PREP1; PKNOX1; source: E. coli, purified
binding relative to wild type [1]: 75%

B2: PBX1_(1-430), wild-type recombinant (natural protein, human, UniProt P40424 1-430, looked up)
chain: MDEQPRLMHSHAGVGMAGHPGLSQHLQDGAGGTEGEGGRKQDIGDILQQIMTITDQSLDEAQARKHALNCHRMKPALFNVLCEIKEKTVLSIRGAQEEEPTDPQLMRLDNMLLAEGVAGPEKGGGSAAAAAAAAASGGAGSDNSVEHSDYRAKLSQIRQIYHTELEKYEQACNEFTTHVMNLLREQSRTRPISPKEIERMVSIIHRKFSSIQMQLKQSTCEAVMILRSRFLDARRKRRNFNKQATEILNEYFYSHLSNPYPSEEAKEELAKKCGITVSQVSNWFGNKRIRYKKNIGKFQEEANIYAAKTAVTATNVSAHGSQANSPSTPNSAGSSSSFNMSNSGDLFMSVQSLNGDSYQGAQVGANVQSQVDTLRHVISQTGGYSDGLAASQMYSPQGISANGGWQDATTPSSVTSPTEGPGSVHSDTSN
notes: also called wild-type PBX1; purified recombinant human PBX1; source: E. coli, purified
binding result [2]: binds | binding result [3]: binds | binding result [4]: binds
